The results in this text go back to article PMC3789969, “The Allosteric Role of the AAA^+ Domain of ChlD Protein from the Magnesium Chelatase of Synechocystis Species PCC 6803*” (The Journal of Biological Chemistry, 2013).

Settings in all cases: both partners purified
For assay [1], the target named is T1, His6-ChlD (E152Q), Walker B mutant (Synechocystis sp. PCC 6803, UniProt P72772 1-676, E152Q).
T1 construct: Magnesium chelatase subunit ChlD, Synechocystis sp; PCC 6803, with E152Q in the Walker B motif; Same construct as m2 with one point mutation; also called E152Q mutant; source: Rosetta2(DE3) pLysS, site-directed mutant (QuikChange) of pET9a-His6ChlD, purified
In words: chelatase assembly titration (steady-state enzyme activity); apparent; ChlI titrated against 0.1 μM His6-ChlD with 0.4 μM ChlH, steady-state rate of MgDIX formation fitted to Equation 3; 50 mM MOPS/KOH, 0.3 M glycerol, 1 mM DTT, 10 mM free Mg2+, I = 0.1 with KCl, 8 μM DIX, pH 7.7, 34 °C.

Assay [2] concerns the target T2, His6-ChlD (R289A), Sensor II mutant (Synechocystis sp. PCC 6803, UniProt P72772 1-676, R289A).
T2 construct: Magnesium chelatase subunit ChlD, Synechocystis sp; PCC 6803, with R289A removing the Sensor II arginine; Same construct as m2 with one point mutation; also called R289A mutant; Sensor II arginine mutant; source: Rosetta2(DE3) pLysS, site-directed mutant (QuikChange) of pET9a-His6ChlD, purified
Described as above.

The target in assay [3] is T3, His6-ChlD, wild type, of the magnesium chelatase of Synechocystis sp. PCC 6803 (Synechocystis sp. PCC 6803, UniProt P72772 1-676).
T3 construct: Magnesium chelatase subunit ChlD, Synechocystis sp; PCC 6803; also called wild type ChlD; wild type His6-ChlD; source: Rosetta2(DE3) pLysS, vector pET9a-His6ChlD, purified
Described as above.

Assay [4] deals with T4, His6-ChlD (R208A), arginine finger mutant (Synechocystis sp. PCC 6803, UniProt P72772 1-676, R208A).
T4 construct: Magnesium chelatase subunit ChlD, Synechocystis sp; PCC 6803, with R208A removing the arginine finger; Same construct as m2 with one point mutation; also called R208A mutant; source: Rosetta2(DE3) pLysS, site-directed mutant (QuikChange) of pET9a-His6ChlD, purified
Described as above.

For assay [5], the target named is T5, His6-ChlD (K49A), Walker A mutant (Synechocystis sp. PCC 6803, UniProt P72772 1-676, K49A).
T5 construct: Magnesium chelatase subunit ChlD, Synechocystis sp; PCC 6803, with K49A in the Walker A motif; Same construct as m2 with one point mutation; also called K49A mutant; source: Rosetta2(DE3) pLysS, site-directed mutant (QuikChange) of pET9a-His6ChlD, purified
The experiment in a line: pull-down; co-purification on Ni(II) chelating Sepharose through His6-ChlD; 2 μM ChlD and 2 μM ChlI, with nucleotide (methods: 5 mM ADP; legend: ATP), 15 mM MgCl2, 50 mM Tricine, 0.3 M glycerol, pH 7.9, room temperature; SDS-PAGE of the resin.

T3 sequence (P72772 whole entry): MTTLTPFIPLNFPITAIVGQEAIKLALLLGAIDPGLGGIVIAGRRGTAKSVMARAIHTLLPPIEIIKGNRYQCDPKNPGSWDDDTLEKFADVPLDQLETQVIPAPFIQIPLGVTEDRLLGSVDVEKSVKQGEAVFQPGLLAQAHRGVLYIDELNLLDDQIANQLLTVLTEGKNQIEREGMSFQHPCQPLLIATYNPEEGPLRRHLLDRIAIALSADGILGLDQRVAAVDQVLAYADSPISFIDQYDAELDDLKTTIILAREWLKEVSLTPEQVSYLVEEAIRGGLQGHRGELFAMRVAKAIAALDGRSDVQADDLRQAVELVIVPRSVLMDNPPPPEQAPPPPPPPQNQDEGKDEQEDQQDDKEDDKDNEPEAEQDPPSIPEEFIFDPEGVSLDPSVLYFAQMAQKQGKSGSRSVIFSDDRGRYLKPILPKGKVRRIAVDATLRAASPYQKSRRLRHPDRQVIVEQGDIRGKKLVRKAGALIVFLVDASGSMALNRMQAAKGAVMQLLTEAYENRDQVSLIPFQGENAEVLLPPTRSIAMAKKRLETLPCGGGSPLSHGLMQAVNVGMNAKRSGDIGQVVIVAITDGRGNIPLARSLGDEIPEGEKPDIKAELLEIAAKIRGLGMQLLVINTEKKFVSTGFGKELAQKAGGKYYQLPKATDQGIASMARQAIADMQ
T1 sequence (P72772 whole entry E152Q): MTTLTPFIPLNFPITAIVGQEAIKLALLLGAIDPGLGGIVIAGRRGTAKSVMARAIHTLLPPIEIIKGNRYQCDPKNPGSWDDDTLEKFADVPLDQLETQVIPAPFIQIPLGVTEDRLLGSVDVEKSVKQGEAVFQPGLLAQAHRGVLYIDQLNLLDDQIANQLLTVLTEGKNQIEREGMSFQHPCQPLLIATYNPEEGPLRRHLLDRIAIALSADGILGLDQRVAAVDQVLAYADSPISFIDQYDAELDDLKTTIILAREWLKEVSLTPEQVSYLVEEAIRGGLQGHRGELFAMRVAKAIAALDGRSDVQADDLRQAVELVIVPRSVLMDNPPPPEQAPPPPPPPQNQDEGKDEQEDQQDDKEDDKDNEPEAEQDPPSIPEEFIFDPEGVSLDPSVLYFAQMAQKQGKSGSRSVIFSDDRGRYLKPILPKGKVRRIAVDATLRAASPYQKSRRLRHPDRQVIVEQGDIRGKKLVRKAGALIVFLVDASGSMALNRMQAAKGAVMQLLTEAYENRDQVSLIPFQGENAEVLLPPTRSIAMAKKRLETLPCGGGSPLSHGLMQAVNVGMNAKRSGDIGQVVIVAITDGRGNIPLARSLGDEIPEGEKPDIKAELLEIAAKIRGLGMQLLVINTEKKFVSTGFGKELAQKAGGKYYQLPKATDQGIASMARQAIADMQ
T4 sequence (P72772 whole entry R208A): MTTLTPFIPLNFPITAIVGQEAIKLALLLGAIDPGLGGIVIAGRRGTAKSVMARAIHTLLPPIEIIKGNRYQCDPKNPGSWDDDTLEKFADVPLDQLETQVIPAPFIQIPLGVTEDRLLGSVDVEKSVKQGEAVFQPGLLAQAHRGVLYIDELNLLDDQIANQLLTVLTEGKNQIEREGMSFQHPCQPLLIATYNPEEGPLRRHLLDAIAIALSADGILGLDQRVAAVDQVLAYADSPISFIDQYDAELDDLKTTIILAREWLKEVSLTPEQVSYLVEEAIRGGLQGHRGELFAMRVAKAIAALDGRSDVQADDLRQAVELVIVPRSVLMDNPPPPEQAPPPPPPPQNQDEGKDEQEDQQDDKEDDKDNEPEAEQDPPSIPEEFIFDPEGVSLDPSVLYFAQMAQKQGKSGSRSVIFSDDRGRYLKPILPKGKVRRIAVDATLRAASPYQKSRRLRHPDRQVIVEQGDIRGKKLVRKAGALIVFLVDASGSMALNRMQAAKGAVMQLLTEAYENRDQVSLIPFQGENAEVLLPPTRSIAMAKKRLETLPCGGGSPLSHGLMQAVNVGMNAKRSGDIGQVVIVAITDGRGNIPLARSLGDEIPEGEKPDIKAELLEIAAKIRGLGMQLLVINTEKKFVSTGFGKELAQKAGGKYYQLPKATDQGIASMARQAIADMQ
T2 sequence (P72772 whole entry R289A): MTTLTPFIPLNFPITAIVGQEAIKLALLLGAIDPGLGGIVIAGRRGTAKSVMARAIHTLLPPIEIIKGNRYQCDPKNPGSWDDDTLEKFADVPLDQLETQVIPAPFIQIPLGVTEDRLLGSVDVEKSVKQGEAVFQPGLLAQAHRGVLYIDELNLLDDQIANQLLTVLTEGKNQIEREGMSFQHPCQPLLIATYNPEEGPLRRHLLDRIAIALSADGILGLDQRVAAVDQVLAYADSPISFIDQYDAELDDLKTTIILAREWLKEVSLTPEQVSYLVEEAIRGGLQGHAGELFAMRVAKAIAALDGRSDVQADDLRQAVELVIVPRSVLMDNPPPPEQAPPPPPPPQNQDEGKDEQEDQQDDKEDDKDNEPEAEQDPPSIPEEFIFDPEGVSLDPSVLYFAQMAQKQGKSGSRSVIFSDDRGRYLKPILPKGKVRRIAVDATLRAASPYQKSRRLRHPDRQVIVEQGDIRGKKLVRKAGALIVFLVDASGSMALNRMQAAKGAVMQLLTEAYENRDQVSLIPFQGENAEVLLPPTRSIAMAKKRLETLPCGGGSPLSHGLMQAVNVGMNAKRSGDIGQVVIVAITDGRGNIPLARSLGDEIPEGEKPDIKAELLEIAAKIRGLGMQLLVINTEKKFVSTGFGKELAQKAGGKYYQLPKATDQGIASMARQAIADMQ
T5 sequence (P72772 whole entry K49A): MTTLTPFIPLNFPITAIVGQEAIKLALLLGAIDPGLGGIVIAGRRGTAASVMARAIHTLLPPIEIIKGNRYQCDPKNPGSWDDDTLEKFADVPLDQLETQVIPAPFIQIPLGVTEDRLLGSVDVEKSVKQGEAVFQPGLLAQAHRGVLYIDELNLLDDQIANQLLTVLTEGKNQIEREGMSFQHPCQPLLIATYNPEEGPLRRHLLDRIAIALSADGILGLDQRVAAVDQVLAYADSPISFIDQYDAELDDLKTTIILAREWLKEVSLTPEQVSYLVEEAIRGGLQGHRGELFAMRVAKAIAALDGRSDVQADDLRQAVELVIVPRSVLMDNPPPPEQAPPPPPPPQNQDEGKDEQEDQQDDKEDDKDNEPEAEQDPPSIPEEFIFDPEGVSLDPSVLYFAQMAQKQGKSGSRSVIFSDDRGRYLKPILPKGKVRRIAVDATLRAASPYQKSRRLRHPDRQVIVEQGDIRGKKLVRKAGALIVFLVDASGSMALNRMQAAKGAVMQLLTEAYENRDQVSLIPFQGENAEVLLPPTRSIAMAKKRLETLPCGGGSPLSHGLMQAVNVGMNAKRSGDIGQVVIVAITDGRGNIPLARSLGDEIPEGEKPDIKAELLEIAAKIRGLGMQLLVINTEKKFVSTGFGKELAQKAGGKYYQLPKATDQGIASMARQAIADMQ

B1: ChlI protein of the magnesium chelatase of Synechocystis sp. PCC 6803 (natural protein, UniProt P51634 1-357, looked up)
chain: MTATLAAPSKTRRVVFPFTAIVGQDEMKLALLLNVIDPKIGGVMIMGDRGTGKSTTIRALADLLPEIEVVANDPFNSSPSDPEMMSEEVRIRVDSQEPLSIVKKKVTMVDLPLGATEDRVCGTIDIEKALSEGVKAFEPGLLAKANRGILYVDEVNLLDDHLVDVLLDSAAGGWNTVEREGISIRHPARFVLVGSGNPEEGELRPQLLDRFGMHAEIRTVREPELRVKIVEQRTEFDQNPHPFCDQYQTEQEALQAKIVNAQNLLPQVTIDYDYRVKVSEVCAELDVDGLRGDIVTNRAAKALAAFEGRTEVTVDDISRVIVLCLRHRLRKDPLESIDSGSKVEKVFKRVFGVVDEA
notes: Magnesium chelatase subunit ChlI, Synechocystis sp; PCC 6803; no tag is named for ChlI; also called wild type ChlI; source: BL21(DE3), vector pET9a-ChlI, autoinducing medium ZYM-5052, purified
As to B1, the Kd in assay [1] came to 0.35 nM; in assay [2] it was 52 nM; in assay [3], 0.17 nM; in assay [4], 14 nM. Besides, the “nd (concentration of binding sites for ChlI)” value in assay [1] worked out at 0.24 µM; in assay [2], 0.19 µM; in assay [3] it was 0.23 µM; in assay [4], 0.2 µM. Also, in assay [5], the binding result was “binds”.
